This is an account of results in US20220177584A1 (Janssen / Centocor, published 2022).

For the test, the target named is cynomolgus monkey GPRC5D (cynomolgus monkey). The experiment in a line: cell-based or functional assay.

B1: talquetamab (bispecific antibody, human IgG4 S228P, lambda, F234A L235A)
heavy 1: not shown
light 1: DIQMTQSPSSLSASVGDRVTITCKASQNVATHVGWYQQKPGKAPKRLIYSASYRYSGVPSRFSGSGSGTEFTLTISNLQPEDFATYYCQQYNRYPYTFGQGTKLEIKKAAPSVTLFPPSSEELQANKATLVCLISDFYPGAVTVAWKGDSSPVKAGVETTTPSKQSNNKYAASSYLSLTPEQWKSHRSYSCQVTHEGSTVEKTVAPTECS
heavy 2: EVQLVESGGGLVQPGGSLRLSCAASGFTFNTYAMNWVRQAPGKGLEWVARIRSKYNNYATYYAASVKGRFTISRDDSKNSLYLQMNSLKTEDTAVYYCARHGNFGNSYVSWFAYWGQGTLVTVSSASTKGPSVFPLAPCSRSTSESTAALGCLVKDYFPEPVTVSWNSGALTSGVHTFPAVLQSSGLYSLSSVVTVPSSSLGTKTYTCNVDHKPSNTKVDKRVESKYGPPCPPCPAPEAAGGPSVFLFPPKPKDTLMISRTPEVTCVVVDVSQEDPEVQFNWYVDGVEVHNAKTKPREEQFNSTYRVVSVLTVLHQDWLNGKEYKCKVSNKGLPSSIEKTISKAKGQPREPQVYTLPPSQEEMTKNQVSLTCLVKGFYPSDIAVEWESNGQPENNYKTTPPVLDSDGSFLLYSKLTVDKSRWQEGNVFSCSVMHEALHNHYTQKSLSLSLGK
light 2: QTVVTQEPSLTVSPGGTVTLTCRSSTGAVTTSNYANWVQQKPGQAPRGLIGGTNKRAPGTPARFSGSLLGGKAALTLSGVQPEDEAEYYCALWYSNLWVFGGGTKLTVLGQPKAAPSVTLFPPSSEELQANKATLVCLISDFYPGAVTVAWKADSSPVKAGVETTTPSKQSNNKYAASSYLSLTPEQWKSHRSYSCQVTHEGSTVEKTVAPTECS
As to B1, the “in vivo pharmacological activity, cynomolgus monkey against human” value is roughly 100 fold lower.
